Results: article PMC13276077

B1: N601 nucleosome core particle -1 meCpG (nucleosome)
DNA 1: CAGGATGTATATATCTGACACGTGCCTGGAGACTAGGGAGTAATCCCCTTGGCGGTTAAAACGCGGGGGACAGCGCGTACGTGCGTTTAAGCGGTGCTAGAGCTGTCTACGACCAATTGAGCGGCCTCGGCACCGGGATTCTCCA
DNA 2: TGGAGAATCCCGGTGCCGAGGCCGCTCAATTGGTCGTAGACAGCTCTAGCACCGCTTAAACGCACGTACGCGCTGTCCCCCGCGTTTTAACCGCCAAGGGGATTACTCCCTAGTCTCCAGGCACGTGTCAGATATATACATCCTG
modifications: meCpG at -1
B2: 15-N601-15 nucleosome 81 meCpA (nucleosome)
DNA 1: ATGGAACACATTGCACAGGATGTATATATCTGACACGTGCCTGGAGACTAGGGAGTAATCCCCTTGGCGGTTAAAACGCGGGGGACAGCGCGTACGTGCGTTTAAGCGGTGCTAGAGCTGTCTACGACCAATTGAGCGGCCTCGGCACCGGGATTCTCCAGGGCGGCCGCGTATT
DNA 2: AATACGCGGCCGCCCTGGAGAATCCCGGTGCCGAGGCCGCTCAATTGGTCGTAGACAGCTCTAGCACCGCTTAAACGCACGTACGCGCTGTCCCCCGCGTTTTAACCGCCAAGGGGATTACTCCCTAGTCTCCAGGCACGTGTCAGATATATACATCCTGTGCAATGTGTTCCAT
modifications: linker meCpA 81 bp from dyad

Tests used:
[1] = target: MeCP2 full-length, e2 isoform;histone octamer (Homo sapiens;, UniProt P51608;P0C0S8;P62807;P68431;P62805 1-486;2-130;2-126;2-136;2-103, |H2B T115C;H3.1 C96S;C110A); assay: EMSA; 20 mM HEPES pH 7.5, 75 mM NaCl, 125 mM KCl, 50 uM EDTA, 2.5 mM beta-mercaptoethanol, 5% glycerol, BSA, 1.58 uM 47 bp competitor DNA (nucleosome assays); absent w
[2] = target: T1, MeCP2 MBD;histone octamer, H3Kc27me3 (Homo sapiens;Homo sapiens, UniProt P51608;P0C0S8;P62807;P68431;P62805 77-167;2-130;2-126;2-136;2-103, |H3.1 K27C (trimethyl-lysine analogue, Kc27me3);C96S;C110A); assay: EMSA; H3K27me3 histone octamer; no competitor DNA; 20 mM HEPES pH 7.5, 75 mM NaCl, 125 mM KCl, 50 uM EDTA, 2.5 mM beta-mercaptoethanol, 5% glycerol, BSA, 1.58 uM 47 bp competitor DNA (nucleosome assays); absent w
[3] = target: MeCP2 full-length, e2 isoform;histone octamer, H3Kc27me3 (Homo sapiens;Homo sapiens, UniProt P51608;P0C0S8;P62807;P68431;P62805 1-486;2-130;2-126;2-136;2-103, |H3.1 K27C (trimethyl-lysine analogue, Kc27me3);C96S;C110A); assay: as above
[4] = target: T2, MeCP2 MBD;histone octamer, tailless H3 (Homo sapiens;Homo sapiens, UniProt P51608;P0C0S8;P62807;P68431;P62805 77-167;2-130;2-126;26-136;2-103, |H3.1 del1-24;A25C;C96S;C110A); assay: EMSA; H3-tailless histone octamer; no competitor DNA; 20 mM HEPES pH 7.5, 75 mM NaCl, 125 mM KCl, 50 uM EDTA, 2.5 mM beta-mercaptoethanol, 5% glycerol, BSA, 1.58 uM 47 bp competitor DNA (nucleosome assays); absent w
[5] = target: MeCP2 full-length, e2 isoform;histone octamer, tailless H3 (Homo sapiens;Homo sapiens, UniProt P51608;P0C0S8;P62807;P68431;P62805 1-486;2-130;2-126;26-136;2-103, |H3.1 del1-24;A25C;C96S;C110A); assay: as above
[6] = target: MeCP2 full-length, e2 isoform;histone octamer (Homo sapiens;Homo sapiens, UniProt P51608;P0C0S8;P62807;P68431;P62805 1-486;2-130;2-126;2-136;2-103, |H3.1 C96S;C110A); assay: EMSA; no competitor DNA; 20 mM HEPES pH 7.5, 75 mM NaCl, 125 mM KCl, 50 uM EDTA, 2.5 mM beta-mercaptoethanol, 5% glycerol, BSA, 1.58 uM 47 bp competitor DNA (nucleosome assays); absent w
[7] = target: T3, MeCP2 MBD;histone octamer (Homo sapiens;Homo sapiens, UniProt P51608;P0C0S8;P62807;P68431;P62805 77-167;2-130;2-126;2-136;2-103, |H3.1 C96S;C110A); assay: as above
[8] = target: MeCP2 MBD;histone octamer, acidic patch mutant (Homo sapiens;Homo sapiens, UniProt P51608;P0C0S8;P62807;P68431;P62805 77-167;2-130;2-126;2-136;2-103, |H2A E61A;E91A;E92A;H2B E113A;H3.1 C96S;C110A); assay: EMSA; acidic patch mutant histone octamer; no competitor DNA; 20 mM HEPES pH 7.5, 75 mM NaCl, 125 mM KCl, 50 uM EDTA, 2.5 mM beta-mercaptoethanol, 5% glycerol, BSA, 1.58 uM 47 bp competitor DNA (nucleosome assays); absent w
[9] = target: MeCP2 full-length, e2 isoform;histone octamer, acidic patch mutant (Homo sapiens;Homo sapiens, UniProt P51608;P0C0S8;P62807;P68431;P62805 1-486;2-130;2-126;2-136;2-103, |H2A E61A;E91A;E92A;H2B E113A;H3.1 C96S;C110A); assay: as above
[10] = target: T3, MeCP2 MBD;histone octamer; assay: EMSA; 20 mM HEPES pH 7.5, 75 mM NaCl, 125 mM KCl, 50 uM EDTA, 2.5 mM beta-mercaptoethanol, 5% glycerol, BSA, 1.58 uM 47 bp competitor DNA (nucleosome assays); absent w
[11] = target: MeCP2 full-length, e2 isoform;histone H1.0 25-97;histone octamer (Homo sapiens;Homo sapiens;, UniProt P51608;P07305;P0C0S8;P62807;P68431;P62805 1-486;25-97;2-130;2-126;2-136;2-103, ||H2B T115C;H3.1 C96S;C110A); assay: EMSA; H1.0 residues 25-97 pre-bound (chromatosome); 20 mM HEPES pH 7.5, 75 mM NaCl, 125 mM KCl, 50 uM EDTA, 2.5 mM beta-mercaptoethanol, 5% glycerol, BSA, 1.58 uM 47 bp competitor DNA (nucleosome assays); absent w
[12] = target: MeCP2 full-length, e2 isoform;histone H1.0 1-97;histone octamer (Homo sapiens;Homo sapiens;, UniProt P51608;P07305;P0C0S8;P62807;P68431;P62805 1-486;1-97;2-130;2-126;2-136;2-103, ||H2B T115C;H3.1 C96S;C110A); assay: EMSA; H1.0 residues 1-97 pre-bound (chromatosome); 20 mM HEPES pH 7.5, 75 mM NaCl, 125 mM KCl, 50 uM EDTA, 2.5 mM beta-mercaptoethanol, 5% glycerol, BSA, 1.58 uM 47 bp competitor DNA (nucleosome assays); absent w
[13] = target: T2, MeCP2 MBD;histone octamer, tailless H3; assay: EMSA; H3-tailless histone octamer; 20 mM HEPES pH 7.5, 75 mM NaCl, 125 mM KCl, 50 uM EDTA, 2.5 mM beta-mercaptoethanol, 5% glycerol, BSA, 1.58 uM 47 bp competitor DNA (nucleosome assays); absent w
[14] = target: T1, MeCP2 MBD;histone octamer, H3Kc27me3; assay: EMSA; H3K27me3 (H3Kc27me3) histone octamer; 20 mM HEPES pH 7.5, 75 mM NaCl, 125 mM KCl, 50 uM EDTA, 2.5 mM beta-mercaptoethanol, 5% glycerol, BSA, 1.58 uM 47 bp competitor DNA (nucleosome assays); absent w

| Binder | binding result [1] | Kd [2] | Kd [3] | Kd [4] | Kd [5] | Kd [6] | Kd [7] | Kd [8] | Kd [9] | Kd [1] | Kd [10] | Kd [11] | Kd [12] | Kd [13] | Kd [14] |
| --- | --- | --- | --- | --- | --- | --- | --- | --- | --- | --- | --- | --- | --- | --- | --- |
| B1 | no binding | 85.5 nM | 56.8 nM | 35.5 nM | 29.2 nM | 44.2 nM | 50.7 nM | 51.5 nM | 49.7 nM | – | – | – | – | – | – |
| B2 | – | – | – | – | – | – | – | – | – | 141 nM | 424 nM | 295 nM | 382 nM | 334 nM | 442 nM |
